Results taken from article PMC7614769.
Values joined by “and” are separate entries in the source; they are usually repeats but may differ in a detail not shown here. Identical values can stand only once.

Biological target: human FcμR ectodomain (human) (UniProt O60667)
Test: BLI; FcμR (20 μg/ml) captured on AMC (anti-mouse IgG-Fc capture) biosensors by the anti-FcμR antibody RR-16; full-length or proteolysed IgM 0.08-10 nM in solution; PBS, 0.005% Tween 20, 25 °C; apparent Kd from response against IgM concentration, 1:1 binding model

Sequence of human FcμR ectodomain (human) (O60667 17-251): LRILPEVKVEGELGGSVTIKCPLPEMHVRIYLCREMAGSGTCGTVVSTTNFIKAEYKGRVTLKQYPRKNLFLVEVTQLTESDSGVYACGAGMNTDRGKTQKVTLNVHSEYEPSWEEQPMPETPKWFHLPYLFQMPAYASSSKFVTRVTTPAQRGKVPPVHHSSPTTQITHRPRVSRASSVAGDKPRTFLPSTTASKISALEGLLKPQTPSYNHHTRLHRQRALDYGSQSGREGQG
Sequence of Full-length IgM (myeloma), pentamer with J chain (P01591 whole entry, looked up): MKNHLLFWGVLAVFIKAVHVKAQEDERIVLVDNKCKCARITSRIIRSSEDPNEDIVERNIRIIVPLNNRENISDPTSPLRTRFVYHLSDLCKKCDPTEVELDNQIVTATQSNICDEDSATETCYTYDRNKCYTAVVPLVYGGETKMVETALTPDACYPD

In the case of “Full-length IgM (myeloma), pentamer with J chain (from UniProt P01591 23-159) (antibody)”, the Kd is reported as 0.3 nM and 0.4 nM.
